Measured values from PMC4159212.

Substrate: COC1=C(OC)C(=O)C(CC=C(C)C)=C(C)C1=O
Test: PRODH steady-state kinetics
Format: biochemical, Rhodobacter capsulatus
Settings: 200 mM proline fixed, 23 °C, 20 mM Tris pH 8.0, 10% glycerol

B1: RcPutA (Rhodobacter capsulatus SB 1003) (protein)
chain: MTDLSALGPKAKFAPEAEVLQALVAQAALPQPQLDRIAARGADLVARIRAEAKPSLMEHFLAQYGLSTREGVALMCLAEAMLRVPDTATIDALIEDKIAPSDWGKHLGTAASSLVNASTWALMLTGKVLDDGAGGIAGTLRGAMRRLGEPVIRAAVGQAMREMGRQFVLGETIEKALERAEKREAEGYTFSYDMLGEAALTAADAERYRLAYAQAITAIGKAATRGSIAANPGISIKLSALHPRYEVAQEARVMAELVPVVRDLARAAARAGIALHIDAEEQDRLALSLRVMAAVIADPETAGWEGFGAVVQAYGKRAGAAIDALAAMARAAGRRINIRLVKGAYWDAEMKRAQVEGHPGFPLFTSKTGTDVAYICLAAKLFGLNDCIYPQFATHNAHTVAAVLEMAAGRPFEFQRLHGMGARLHDIVLRETGGRCRIYAPVGAHRDLLAYLVRRLLENGANSSFVNQIVNESVPPAEVAACPFAALPTARAPRGLLAPADLFGAGRVNAQGFDLSDPEVLARIEAARDVTLPDAAPIVAGPVSGTLRPVRNPATGAVVAQVTEADAATVALALDAAQVWSAPAATRAAVLCRAADLYEENFGPIFAALAQEAGKTLGDAVSELREAVDFLRYYAAEGAADTRPPRGAVVAISPWNFPLAIFTGQVAAALMAGNAVLAKPAEQTPIIAALAVRLLHQAGVPETALQLLPGDGPTVGAALTRDPRVAGVVFTGSTETAQIIARAMAAHLAPGTPLIAETGGLNAMVVDSTALPEQAVRDVVASAFRSAGQRCSALRCLYVQDDIAPHLIGMLKGAMEELVSGDPARLSTDVGPVIDAEAKAGIETYLAANKARILHRSTAPEGGHFVAPALLQVGGIADLEREIFGPVLHLATFAAEDLPAVIAAINARGYGLTFGLHSRIDARVETVAETIRAGNIYVNRNQIGAVVGSQPFGGEGLSGTGPKAGGPLYLNRFYAPEPVVAVGGWTEAATPILPEARETQLDEIFLPGPTGELNRLTRHQRGPILCLGPGAEAASAQAAAVVALGGQAVQASGAVSPKALETLTPLAGVLWWGAAEMGRAYAQALAVRPGPLVPLITAKPDLAHVAHERHLCVDTTAAGGNAALLAG
Protein B1 has a Km of 94 ± 19 µM and a kcat of 2.0 ± 0.1 s⁻¹.
